Laboratory results published in patent US20070105152.

Assays:
[1] = target: T1, Asp-Ser-AcLys-Gly-Ala (SIRT1 library hit, on bead)
T1 chain: DSKGAXXRM

AcGG(AcK)APR = target: T2, AcGG(AcK)APR
T2 chain: GGKAPR

AcKSTGG(AcK)AP = target: T3, AcKSTGG(AcK)AP
T3 chain: KSTGGKAP

[2] = target: T4, Ile-Phe-AcLys-Thr-Phe (SIRT1 library hit, on bead)
T4 chain: IFKTFXXRM

AcSTGG(AcK)APR = target: T5, AcSTGG(AcK)APR
T5 chain: STGGKAPR

[3] = target: T6, Pro/Trp-Pro/Trp-AcLys-Ile-Thr (SIRT1 library hit, on bead)
T6 chain: WPKITXXRM

VQ(AcK)II = target: T7, VQ(AcK)II
T7 chain: VQKII

AcTGG(AcK)APR = target: T8, AcTGG(AcK)APR
T8 chain: TGGKAPR

[4] = target: T9, Leu-Asn-AcLys-Asp-Gln (SIRT1 library hit, on bead)
T9 chain: LNKDQXXRM

LNle(AcK)VG = target: T10, LNle(AcK)VG
T10 chain: LLKVG

[5] = target: T11, Trp-Gly-AcLys-Ser-Pro (SIRT1 library hit, on bead)
T11 chain: WGKSPXXRM

[6] = target: T12, Ser-Asp-AcLys-Tyr-His (SIRT1 library hit, on bead)
T12 chain: SDKYHXXRM

AcTGG(AcK)AP = target: T13, AcTGG(AcK)AP
T13 chain: TGGKAP

QNle(AcK)GF = target: T14, QNle(AcK)GF
T14 chain: QLKGF

[7] = target: T15, Gln-Pro-AcLys-Gln-Ile (SIRT1 library hit, on bead)
T15 chain: QPKQIXXRM

[8] = target: T16, Me2Arg-Ala-AcLys-Nle-Asp (SIRT1 library hit, on bead)
T16 chain: RAKMDXXRM

[9] = target: T17, Asn-His-AcLys-Ile-Ile (SIRT1 library hit, on bead)
T17 chain: NHKIIXXRM

[10] = target: T18, His-Me2Arg-AcLys-Nle-Pro (SIRT1 library hit, on bead)
T18 chain: HRKMPXXRM

[11] = target: T19, Me2Arg-Phe-AcLys-Pro-Glu (SIRT1 library hit, on bead)
T19 chain: RFKPEXXRM

[12] = target: T20, Trp-Trp-AcLys-His-Gly (SIRT1 library hit, on bead) (not fully specified)
T20 chain: WWKHGXXRM

QP(AcK)QI = target: T21, QP(AcK)QI
T21 chain: QPKQI

[13] = target: T22, Trp-His-AcLys-Phe-Glu (SIRT1 library hit, on bead) (not fully specified)
T22 chain: WHKFEXXRM

WH(AcK)FQ = target: T23, WH(AcK)FQ
T23 chain: WHKFQ

[14] = target: T24, Asp-Val-AcLys-Nle-His (SIRT1 library hit, on bead)
T24 chain: DVKMHXXRM

AcTGG(AcK)APRK = target: T25, AcTGG(AcK)APRK
T25 chain: TGGKAPRK

[15] = target: T26, Pro-Gly-AcLys-Leu-Tyr (SIRT1 library hit, on bead)
T26 chain: PGKLYXXRM

[16] = target: T27, Nle-Nle-AcLys-Gln-Gln (SIRT1 library hit, on bead)
T27 chain: MMKQQXXRM

WH(AcK)QQ = target: T28, WH(AcK)QQ
T28 chain: WHKQQ

AY(AcK)EV = target: T29, AY(AcK)EV
T29 chain: AYKEV

[17] = target: T30, Asn-His-AcLys-Leu-Leu (SIRT1 library hit, on bead)
T30 chain: NHKLLXXRM

NH(AcK)II = target: T31, NH(AcK)II
T31 chain: NHKII

Me2RP(AcK)SI = target: T32, Me2RP(AcK)SI
T32 chain: RPKSI

Me2RP(AcK)QF = target: T33, Me2RP(AcK)QF
T33 chain: RPKQF

EL(AcK)AS = target: T34, EL(AcK)AS
T34 chain: ELKAS

[18] = target: T35, Thr-Pro-AcLys-Asn-Ala (SIRT1 library hit, on bead)
T35 chain: TPKNAXXRM

[19] = target: T36, Gly-Thr-AcLys-Thr-Gly (SIRT1 library hit, on bead)
T36 chain: GTKTGXXRM

[20] = target: T37, Ser-Tyr-AcLys-Gln-Trp (SIRT1 library hit, on bead)
T37 chain: SYKQWXXRM

[21] = target: T38, Val-Gln-AcLys-Ile-Ile (SIRT1 library hit, on bead) (not fully specified)
T38 chain: VQKIIXXRM

[22] = target: T39, Gly-Tyr-AcLys-Pro-Thr (SIRT1 library hit, on bead)
T39 chain: GYKPTXXRM

AcGG(AcK)APRKQ = target: T40, AcGG(AcK)APRKQ
T40 chain: GGKAPRKQ

WP(AcK)QQ = target: T41, WP(AcK)QQ
T41 chain: WPKQQ

[23] = target: T42, Trp-Pro-AcLys-Trp-Gln (SIRT1 library hit, on bead) (not fully specified)
T42 chain: WPKWQXXRM

[24] = target: T43, His-Trp-AcLys-Thr-His (SIRT1 library hit, on bead)
T43 chain: HWKTHXXRM

[25] = target: T44, Me2Arg/Trp-Me2Arg/Trp-AcLys-Ile-Thr (SIRT1 library hit, on bead)
T44 chain: RWKITXXRM

AcGG(AcK)APRK = target: T45, AcGG(AcK)APRK
T45 chain: GGKAPRK

[26] = target: T46, Ala-Val-AcLys-Phe-Nle (SIRT1 library hit, on bead)
T46 chain: AVKFMXXRM

[27] = target: T47, Me2Arg-Pro-AcLys-Gln-Phe (SIRT1 library hit, on bead)
T47 chain: RPKQFXXRM

AcSTGG(AcK)AP = target: T48, AcSTGG(AcK)AP
T48 chain: STGGKAP

[28] = target: T49, Phe-Glu-AcLys-Tyr-Me2Arg (SIRT1 library hit, on bead)
T49 chain: FEKYRXXRM

[29] = target: T50, Thr-Glu-AcLys-Gln-Glu (SIRT1 library hit, on bead)
T50 chain: TEKQEXXRM

[30] = target: T51, Pro-Ile-AcLys-Glu-Gln (SIRT1 library hit, on bead)
T51 chain: PIKEQXXRM

HK(AcK)LM = target: T52, HK(AcK)LM
T52 chain: HKKLM

[31] = target: T53, Trp-His-AcLys-Phe-Gln (SIRT1 library hit, on bead) (not fully specified)
T53 chain: WHKFQXXRM

[32] = target: T54, Ile-Tyr-AcLys-Asn-Asp (SIRT1 library hit, on bead)
T54 chain: IYKNDXXRM

AcGG(AcK)AP = target: T55, AcGG(AcK)AP
T55 chain: GGKAP

[33] = target: T56, Me2Arg/Pro-Me2Arg/Pro-AcLys-Ser-Ile (SIRT1 library hit, on bead)
T56 chain: RPKSIXXRM

B1: human NAD+-dependent deacetylase SIRT1 (protein)
chain: MADEAALALQPGGSPSAAGADREAASSPAGEPLRKRPRRDGPGLERSPGEPGGAAPEREVPAAARGCPGAAAAALWREAEAEAAAAGGEQEAQATAAAGEGDNGPGLQGPSREPPLADNLYDEDDDDEGEEEEEAAAAAIGYRDNLLFGDEIITNGFHSCESDEEDRASHASSSDWTPRPRIGPYTFVQQHLMIGTDPRTILKDLLPETIPPPELDDMTLWQIVINILSEPPKRKKRKDINTIEDAVKLLQECKKIIVLTGAGVSVSCGIPDFRSRDGIYARLAVDFPDLPDPQAMFDIEYFRKDPRPFFKFAKEIYPGQFQPSLCHKFIALSDKEGKLLRNYTQNIDTLEQVAGIQRIIQCHGSFATASCLICKYKVDCEAVRGDIFNQVVPRCPRCPADEPLAIMKPEIVFFGENLPEQFHRAMKYDKDEVDLLIVIGSSLKVRPVALIPSSIPHEVPQILINREPLPHLHFDVELLGDCDVIINELCHRLGGEYAKLCCNPVKLSEITEKPPRTQKELAYLSELPPTPLHVSEDSSSPERTSPPDSSVIVTLLDQAAKSNDDLDVSESKGCMEEKPQEVQTSRNVESIAEQMENPDLKNVGSSTGEKNERTSVAGTVRKCWPNRVAKEQISRRLDGNQYLFLPPNRYIFHGAEVYSDSEDDVLSSSSCGSNSDSGTCQSPSLEEPMEDESEIEEFYNGLEDEPDVPERAGGAGFGTDGDDQEAINEAISVKQEVTDMNYPSNKS
In the case of B1, the “on-bead deacetylation, biotin and streptavidin quantum dot fluorescence, among the 45 brightest beads” value (shortened to “on-bead deacetylation”) [1] is reported as “hits from the SIRT1 combinatorial library screen”, the Relative kcat/Km (relative to AcTGG(AcK)APRK = 1) (AcGG(AcK)APR) is reported as 0.68 and the Relative kcat/Km (relative to AcTGG(AcK)APRK = 1) (AcKSTGG(AcK)AP) is reported as 0.71. The “on-bead deacetylation” value [2] was “hits from the SIRT1 combinatorial library screen”, the Relative kcat/Km (relative to AcTGG(AcK)APRK = 1) (AcSTGG(AcK)APR) was 0.67 and the “on-bead deacetylation” value [3] was “hits from the SIRT1 combinatorial library screen”. The kcat/Km (VQ(AcK)II) was at least 2470 M⁻¹ s⁻¹, the Relative kcat/Km (relative to AcTGG(AcK)APRK = 1) (AcTGG(AcK)APR) was 0.64 and the “on-bead deacetylation” value [4] was “hits from the SIRT1 combinatorial library screen”. The kcat/Km (LNle(AcK)VG) was 0.00161 M⁻¹ s⁻¹, the “on-bead deacetylation” value [5] was “hits from the SIRT1 combinatorial library screen” and the “on-bead deacetylation” value [6] was “hits from the SIRT1 combinatorial library screen”. For the same protein, the Relative kcat/Km (relative to AcTGG(AcK)APRK = 1) (AcTGG(AcK)AP) was 0.54, the kcat/Km (QNle(AcK)GF) was 0.00237 M⁻¹ s⁻¹ and the “on-bead deacetylation” value [7] was “hits from the SIRT1 combinatorial library screen”. For the same protein, the “on-bead deacetylation” value [8] was “hits from the SIRT1 combinatorial library screen”, the “on-bead deacetylation” value [9] was “hits from the SIRT1 combinatorial library screen” and the “on-bead deacetylation” value [10] was “hits from the SIRT1 combinatorial library screen”. The “on-bead deacetylation” value [11] was “hits from the SIRT1 combinatorial library screen”, the “on-bead deacetylation” value [12] was “hits from the SIRT1 combinatorial library screen” and the “fold preference in catalytic activity over WP(AcK)QQ” value (QP(AcK)QI) was “QP(AcK)QI is favored over WP(AcK)QQ by 18-fold”. For the same protein, the kcat/Km (QP(AcK)QI) was 0.0272 M⁻¹ s⁻¹, the “on-bead deacetylation” value [13] was “hits from the SIRT1 combinatorial library screen” and the kcat/Km (WH(AcK)FQ) was 3290 M⁻¹ s⁻¹. The “on-bead deacetylation” value [14] was “hits from the SIRT1 combinatorial library screen”, the Relative kcat/Km (relative to AcTGG(AcK)APRK = 1) (AcTGG(AcK)APRK) was 1 and the “on-bead deacetylation” value [15] was “hits from the SIRT1 combinatorial library screen”. The “on-bead deacetylation” value [16] was “hits from the SIRT1 combinatorial library screen”, the fold difference in catalytic activity against WP(AcK)QQ (WH(AcK)QQ) was 7 fold and the kcat/Km (WH(AcK)QQ) was 0.00723 M⁻¹ s⁻¹. The kcat/Km (AY(AcK)EV) was 5320 M⁻¹ s⁻¹, the “on-bead deacetylation” value [17] was “hits from the SIRT1 combinatorial library screen” and the kcat/Km (NH(AcK)II) was 3630 M⁻¹ s⁻¹. For the same protein, the kcat/Km (Me2RP(AcK)SI) was 8360 M⁻¹ s⁻¹, the kcat/Km (Me2RP(AcK)QF) was 0.0147 M⁻¹ s⁻¹ and the kcat/Km (EL(AcK)AS) was 0.00139 M⁻¹ s⁻¹. For the same protein, the “on-bead deacetylation” value [18] was “hits from the SIRT1 combinatorial library screen”, the “on-bead deacetylation” value [19] was “hits from the SIRT1 combinatorial library screen” and the “on-bead deacetylation” value [20] was “hits from the SIRT1 combinatorial library screen”. For the same protein, the “on-bead deacetylation” value [21] was “hits from the SIRT1 combinatorial library screen”, the “on-bead deacetylation” value [22] was “hits from the SIRT1 combinatorial library screen” and the Relative kcat/Km (relative to AcTGG(AcK)APRK = 1) (AcGG(AcK)APRKQ) was 0.8. For the same protein, the kcat/Km (WP(AcK)QQ) was 0.00154 M⁻¹ s⁻¹, the “on-bead deacetylation” value [23] was “hits from the SIRT1 combinatorial library screen” and the “on-bead deacetylation” value [24] was “hits from the SIRT1 combinatorial library screen”. For the same protein, the “on-bead deacetylation” value [25] was “hits from the SIRT1 combinatorial library screen”, the Relative kcat/Km (relative to AcTGG(AcK)APRK = 1) (AcGG(AcK)APRK) was 1.01 and the “on-bead deacetylation” value [26] was “hits from the SIRT1 combinatorial library screen”. For the same protein, the “on-bead deacetylation” value [27] was “hits from the SIRT1 combinatorial library screen”, the Relative kcat/Km (relative to AcTGG(AcK)APRK = 1) (AcSTGG(AcK)AP) was 1.61 and the “on-bead deacetylation” value [28] was “hits from the SIRT1 combinatorial library screen”. For the same protein, the “on-bead deacetylation” value [29] was “hits from the SIRT1 combinatorial library screen”, the “on-bead deacetylation” value [30] was “hits from the SIRT1 combinatorial library screen” and the kcat/Km (HK(AcK)LM) was 3110 M⁻¹ s⁻¹. For the same protein, the “on-bead deacetylation” value [31] was “hits from the SIRT1 combinatorial library screen”, the “on-bead deacetylation” value [32] was “hits from the SIRT1 combinatorial library screen” and the Relative kcat/Km (relative to AcTGG(AcK)APRK = 1) (AcGG(AcK)AP) was 1.72. The “on-bead deacetylation” value [33] was “hits from the SIRT1 combinatorial library screen”.
